Columns and labels:
[1] = biological target: Myc-GABAB1 (UniProt Q9Z0U4); assay: co-IP; cell surface immunoprecipitation: intact COS-1 cells incubated with mouse anti-Myc on ice for 3 h, then PBS or 100 μM baclofen for 15 min, lysed, protein G-agarose, Western blot; cells also expressed HA-GABAB2
[2] = biological target: HA-GABAB2 (UniProt O88871)
[3] = biological target: HA-GABAB1-YFP (UniProt Q9Z0U4); assay: FRET or BRET; BRET donor saturation curves in intact COS-1 cells: fixed Rluc fusion (donor) and fixed GABAB2, increasing GABAB1-YFP (acceptor); coelenterazine h 5 μM; PBS or 100 μM baclofen for 15 min; fit with a single binding site

Chain of UniProt O88871 (O88871 41-940): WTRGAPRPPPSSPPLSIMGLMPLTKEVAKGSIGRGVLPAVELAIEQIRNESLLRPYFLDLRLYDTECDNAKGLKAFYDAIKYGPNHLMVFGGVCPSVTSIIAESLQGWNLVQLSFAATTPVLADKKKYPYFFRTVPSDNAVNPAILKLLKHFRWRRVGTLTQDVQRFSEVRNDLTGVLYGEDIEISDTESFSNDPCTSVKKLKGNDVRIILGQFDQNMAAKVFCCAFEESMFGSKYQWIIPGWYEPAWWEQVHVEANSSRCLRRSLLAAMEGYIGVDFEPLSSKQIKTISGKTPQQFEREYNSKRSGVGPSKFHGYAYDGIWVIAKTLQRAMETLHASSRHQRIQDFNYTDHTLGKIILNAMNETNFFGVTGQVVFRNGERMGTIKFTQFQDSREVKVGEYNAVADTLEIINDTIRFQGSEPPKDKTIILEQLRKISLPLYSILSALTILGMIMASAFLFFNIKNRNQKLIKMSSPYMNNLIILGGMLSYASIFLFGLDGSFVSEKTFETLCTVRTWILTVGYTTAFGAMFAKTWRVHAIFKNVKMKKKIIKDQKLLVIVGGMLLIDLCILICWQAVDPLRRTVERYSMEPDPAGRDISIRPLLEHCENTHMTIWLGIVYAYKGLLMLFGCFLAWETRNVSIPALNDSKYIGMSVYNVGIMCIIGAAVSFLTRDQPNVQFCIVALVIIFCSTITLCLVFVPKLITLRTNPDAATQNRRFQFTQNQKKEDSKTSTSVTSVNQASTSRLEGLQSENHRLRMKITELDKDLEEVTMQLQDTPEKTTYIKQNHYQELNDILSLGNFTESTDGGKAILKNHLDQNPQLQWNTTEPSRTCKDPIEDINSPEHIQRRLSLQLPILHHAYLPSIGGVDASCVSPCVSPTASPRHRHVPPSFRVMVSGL

Question: Which ratio of KCTD12:GABAB1 band intensity on Western blots (PBS) [1] does the source give for “FLAG-KCTD12 (from UniProt Q6WVG3 1-327) (natural protein)” here?
Answer: 0.84

Question: What about the ratio of KCTD12:GABAB1 band intensity on Western blots (baclofen) [1] of the same substance?
Answer: 0.91

Question: “Myc-GABAB1 (from UniProt Q9Z0U4 20-960) (receptor)” was tested. Which Endo H-resistant fraction of GABAB1 protein in COS-1 cells co-expressing GABAB1 and GABAB2 (all GABAB1 Endo H-sensitive without GABAB2) [2] did it give?
Answer: 44.5%

Question: How did the BRET50 [3] turn out when “Rluc-KCTD12 (from UniProt Q6WVG3 1-327) (natural protein)” was run?
Answer: 0.026

Reference: publication PMC3750179
